Experimental data: US20230416345A1, “NEW TYPE II COLLAGEN BINDING PROTEINS” (Navigo Proteins GmbH, priority 2020, published 2023)

Tests used:
[1] = target: T1, hCol2 (human Type II collagen) (Homo sapiens, UniProt P02458); assay: Binding analysis by SPR (Biacore 3000) vs human type II collagen
T1 construct: purchased Chondrex
Procedure: (§1) Proteins with affinity tag were purified by affinity chromatography and size exclusion. After affinity chromatography purification using Strep-Tactin Superflow high capacity cartridges (IBA Lifesciences) a size exclusion chromatography (SEC) was performed using an Äkta system and a Superdex™ 200 HiLoad 16/600 column (Cytiva). Fused variants with Aflibercept were purified via MabSelect SuRe (Cytiva) affinity chromatography followed by a size exclusion chromatography (SEC) using an Äkta system and a Superdex™ 200 HiLoad 16/600 column (Cytiva). All chromatography processing steps were carried out on AKTA systems using matrices from Cytiva. Homogenous species of all purified ligands were obtained; no aggregation was detected. Following SOS-PAGE analysis positive fractions were pooled and their protein concentrations were measured. Further analysis included SOS-PAGE, SE-HPLC and RP-HPLC. Protein concentrations were determined by absorbance measurement at 280 nm using the molar absorbent coefficient. Reversed phase chromatography (RP-HPLC) was performed using a Dionex HPLC system and a PLRP-S (5 μm, 300 Å) column (Agilent). Analytic size exclusion chromatography (SE-HPLC) was performed using a Dionex HPLC system and a Superdex200 increase 5/150 GL (Cytiva). Binding of Collagen II was evaluated by SPR measurements using a Biacore 3000 system. Purified Collagen II was obtained from Chondrex.inc and VEGF-165 was obtained from Millipore. Targets were immobilized on a CM5-Sensor via NHS/EDC chemistry (immobilization level ˜1000 RU). Binding molecules were injected at different concentration and affinity was calculated by langmuir 1:1 binding model.
(§2) The purified proteins were immobilized on a CM-5 sensor chip (GE Healthcare) using NHS/EDC after PDEA activation resulting in 110-140 RU with a Biacore 3000 system (GE Healthcare). The chip was equilibrated with SPR running buffer (PBS 0.05% Tween pH 7.3). Upon binding, target analyte was accumulated on the surface increasing the refractive index. This change in the refractive index was measured in real time and plotted as response or resonance units versus time. The analytes were applied to the chip in serial dilutions with a flow rate of 30 μl/min. The association was performed for 120 seconds and the dissociation for 120 seconds. After each run, the chip surface was regenerated with 30 μl regeneration buffer (10 mM glycine pH 2.0) and equilibrated with running buffer.
(§3) Binding studies were carried out by the use of the BIAcore 3000 (GE Healthcare); data evaluation was operated via the BIAevaluation 3.0 software, provided by the manufacturer, using the Langmuir 1:1 model (RI=0). Evaluated dissociation constants (KD) were standardized against the immobilized protein and indicated. Shown is the change in refractive index measured in real time and plotted as response or resonance unit [RU] versus time [sec].

[2] = target: Type I collagen (Homo sapiens, UniProt P02452+P08123); assay: SPR specificity vs Type I collagen; type: binding
Procedure: as §2, §3

[3] = target: T2, Type III collagen (Homo sapiens, UniProt P02461); assay: SPR specificity vs Type III collagen; type: binding
T2 sequence (P02461 154-1221 limits assumed): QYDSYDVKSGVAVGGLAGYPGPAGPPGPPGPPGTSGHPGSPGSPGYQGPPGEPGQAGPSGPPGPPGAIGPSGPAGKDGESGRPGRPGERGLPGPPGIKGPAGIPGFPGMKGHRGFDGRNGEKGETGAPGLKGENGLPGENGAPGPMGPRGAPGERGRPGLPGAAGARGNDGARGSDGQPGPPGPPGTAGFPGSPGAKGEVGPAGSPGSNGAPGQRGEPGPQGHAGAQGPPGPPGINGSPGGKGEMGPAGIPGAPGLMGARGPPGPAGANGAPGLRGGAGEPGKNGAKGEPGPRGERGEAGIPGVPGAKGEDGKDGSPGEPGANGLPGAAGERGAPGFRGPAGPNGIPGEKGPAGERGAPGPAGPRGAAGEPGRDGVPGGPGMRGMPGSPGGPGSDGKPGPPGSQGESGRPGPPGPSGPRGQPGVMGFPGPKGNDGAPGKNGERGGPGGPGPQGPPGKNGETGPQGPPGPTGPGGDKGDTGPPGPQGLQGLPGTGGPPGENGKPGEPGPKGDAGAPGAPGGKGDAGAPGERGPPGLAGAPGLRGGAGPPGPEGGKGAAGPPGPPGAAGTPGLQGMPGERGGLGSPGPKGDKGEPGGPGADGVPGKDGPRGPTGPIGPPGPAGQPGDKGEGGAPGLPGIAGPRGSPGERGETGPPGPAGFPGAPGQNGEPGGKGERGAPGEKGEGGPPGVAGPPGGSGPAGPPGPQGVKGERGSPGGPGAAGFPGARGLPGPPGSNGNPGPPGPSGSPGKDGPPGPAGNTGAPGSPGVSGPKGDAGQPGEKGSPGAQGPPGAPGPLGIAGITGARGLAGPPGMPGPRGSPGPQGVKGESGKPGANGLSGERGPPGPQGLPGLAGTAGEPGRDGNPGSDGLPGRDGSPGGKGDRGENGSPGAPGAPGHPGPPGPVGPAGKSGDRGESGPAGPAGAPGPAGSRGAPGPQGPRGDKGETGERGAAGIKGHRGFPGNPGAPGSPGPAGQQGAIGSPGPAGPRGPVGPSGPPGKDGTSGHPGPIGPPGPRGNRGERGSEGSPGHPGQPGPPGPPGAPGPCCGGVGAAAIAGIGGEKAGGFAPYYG
Procedure: as §2, §3

[4] = target: Type V collagen (Homo sapiens, UniProt P05997+P20908); assay: SPR specificity vs Type V collagen; type: binding
Sequence of Type V collagen (P20908 38-1605 limits assumed): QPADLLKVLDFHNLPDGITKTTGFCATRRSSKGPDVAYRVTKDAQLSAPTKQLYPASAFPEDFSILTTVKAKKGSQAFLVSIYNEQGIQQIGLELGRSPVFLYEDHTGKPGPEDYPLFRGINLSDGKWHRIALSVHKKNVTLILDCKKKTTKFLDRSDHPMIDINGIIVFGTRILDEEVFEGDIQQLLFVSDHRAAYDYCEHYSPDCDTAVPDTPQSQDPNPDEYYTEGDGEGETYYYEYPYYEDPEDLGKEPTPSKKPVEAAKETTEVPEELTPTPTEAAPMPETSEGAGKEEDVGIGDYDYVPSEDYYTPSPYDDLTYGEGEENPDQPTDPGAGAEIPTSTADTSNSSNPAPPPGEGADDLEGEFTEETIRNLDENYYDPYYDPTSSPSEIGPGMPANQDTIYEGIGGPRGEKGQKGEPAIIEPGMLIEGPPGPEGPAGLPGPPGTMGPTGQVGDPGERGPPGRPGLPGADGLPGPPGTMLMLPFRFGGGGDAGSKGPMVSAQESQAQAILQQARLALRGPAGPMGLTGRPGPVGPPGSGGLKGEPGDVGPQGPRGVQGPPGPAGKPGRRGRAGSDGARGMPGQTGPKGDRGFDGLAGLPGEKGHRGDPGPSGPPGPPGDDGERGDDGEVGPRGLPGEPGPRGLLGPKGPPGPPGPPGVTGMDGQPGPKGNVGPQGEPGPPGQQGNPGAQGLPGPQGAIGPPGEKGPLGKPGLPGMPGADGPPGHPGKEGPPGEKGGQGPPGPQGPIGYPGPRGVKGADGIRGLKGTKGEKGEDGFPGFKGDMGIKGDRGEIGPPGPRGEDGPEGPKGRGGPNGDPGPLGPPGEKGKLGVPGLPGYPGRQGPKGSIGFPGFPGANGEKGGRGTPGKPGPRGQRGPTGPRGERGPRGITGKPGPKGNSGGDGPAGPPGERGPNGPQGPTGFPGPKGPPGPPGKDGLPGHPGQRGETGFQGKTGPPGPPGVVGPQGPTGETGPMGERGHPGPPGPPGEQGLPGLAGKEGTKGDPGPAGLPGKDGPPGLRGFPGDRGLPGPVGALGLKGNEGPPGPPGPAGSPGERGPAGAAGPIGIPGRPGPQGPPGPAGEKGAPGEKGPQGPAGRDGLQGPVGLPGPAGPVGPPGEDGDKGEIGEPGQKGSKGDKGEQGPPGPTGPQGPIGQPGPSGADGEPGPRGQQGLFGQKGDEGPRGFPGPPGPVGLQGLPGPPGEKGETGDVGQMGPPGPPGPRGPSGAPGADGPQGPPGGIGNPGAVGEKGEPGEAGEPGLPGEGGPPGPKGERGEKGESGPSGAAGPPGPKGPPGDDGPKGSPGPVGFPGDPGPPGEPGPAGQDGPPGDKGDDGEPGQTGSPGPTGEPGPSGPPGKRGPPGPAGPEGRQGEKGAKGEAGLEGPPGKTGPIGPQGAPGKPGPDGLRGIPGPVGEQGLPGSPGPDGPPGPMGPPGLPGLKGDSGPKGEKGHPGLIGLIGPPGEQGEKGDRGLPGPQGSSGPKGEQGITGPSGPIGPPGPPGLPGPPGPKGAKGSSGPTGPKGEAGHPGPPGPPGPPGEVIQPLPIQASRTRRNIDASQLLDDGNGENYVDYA
Sequence of Type V collagen (P05997 27-1229 limits assumed): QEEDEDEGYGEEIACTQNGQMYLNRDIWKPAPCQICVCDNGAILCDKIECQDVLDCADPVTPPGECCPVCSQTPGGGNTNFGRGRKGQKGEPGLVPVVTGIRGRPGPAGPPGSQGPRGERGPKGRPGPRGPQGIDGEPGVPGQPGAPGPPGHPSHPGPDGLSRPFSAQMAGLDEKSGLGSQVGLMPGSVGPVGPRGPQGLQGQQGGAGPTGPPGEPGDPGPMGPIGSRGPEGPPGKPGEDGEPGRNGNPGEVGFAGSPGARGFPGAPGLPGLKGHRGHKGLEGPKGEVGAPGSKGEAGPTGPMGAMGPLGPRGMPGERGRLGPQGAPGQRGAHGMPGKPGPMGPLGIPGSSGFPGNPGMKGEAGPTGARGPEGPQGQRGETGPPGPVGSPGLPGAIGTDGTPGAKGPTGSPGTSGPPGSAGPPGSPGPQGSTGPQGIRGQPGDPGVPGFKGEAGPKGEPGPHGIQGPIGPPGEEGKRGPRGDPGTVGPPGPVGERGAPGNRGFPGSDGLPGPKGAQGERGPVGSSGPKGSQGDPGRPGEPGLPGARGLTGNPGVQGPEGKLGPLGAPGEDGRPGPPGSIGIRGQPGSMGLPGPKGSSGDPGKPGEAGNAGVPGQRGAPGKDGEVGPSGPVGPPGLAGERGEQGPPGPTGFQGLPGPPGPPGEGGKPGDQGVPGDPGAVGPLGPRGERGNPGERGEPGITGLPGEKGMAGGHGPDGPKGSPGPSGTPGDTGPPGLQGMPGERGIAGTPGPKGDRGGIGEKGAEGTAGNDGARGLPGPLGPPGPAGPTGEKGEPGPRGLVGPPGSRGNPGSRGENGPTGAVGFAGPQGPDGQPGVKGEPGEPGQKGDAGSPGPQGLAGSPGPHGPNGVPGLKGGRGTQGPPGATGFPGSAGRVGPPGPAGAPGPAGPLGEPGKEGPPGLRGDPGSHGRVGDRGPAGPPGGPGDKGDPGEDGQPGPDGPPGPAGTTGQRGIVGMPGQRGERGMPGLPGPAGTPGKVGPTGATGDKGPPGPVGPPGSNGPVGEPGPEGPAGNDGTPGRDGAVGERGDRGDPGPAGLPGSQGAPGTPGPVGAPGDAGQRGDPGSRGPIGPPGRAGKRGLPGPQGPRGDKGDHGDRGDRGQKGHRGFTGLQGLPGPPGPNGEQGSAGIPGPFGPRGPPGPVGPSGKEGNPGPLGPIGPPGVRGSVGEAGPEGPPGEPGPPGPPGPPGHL
Procedure: as §2, §3

[5] = target: T3, recombinant human collagen type II (h Col II) (Homo sapiens, UniProt P02458); assay: KD-determination by ELISA vs human collagen type II; type: binding
T3 construct: purchased Chondrex CHX-20051
T3 sequence (P02458 182-1241): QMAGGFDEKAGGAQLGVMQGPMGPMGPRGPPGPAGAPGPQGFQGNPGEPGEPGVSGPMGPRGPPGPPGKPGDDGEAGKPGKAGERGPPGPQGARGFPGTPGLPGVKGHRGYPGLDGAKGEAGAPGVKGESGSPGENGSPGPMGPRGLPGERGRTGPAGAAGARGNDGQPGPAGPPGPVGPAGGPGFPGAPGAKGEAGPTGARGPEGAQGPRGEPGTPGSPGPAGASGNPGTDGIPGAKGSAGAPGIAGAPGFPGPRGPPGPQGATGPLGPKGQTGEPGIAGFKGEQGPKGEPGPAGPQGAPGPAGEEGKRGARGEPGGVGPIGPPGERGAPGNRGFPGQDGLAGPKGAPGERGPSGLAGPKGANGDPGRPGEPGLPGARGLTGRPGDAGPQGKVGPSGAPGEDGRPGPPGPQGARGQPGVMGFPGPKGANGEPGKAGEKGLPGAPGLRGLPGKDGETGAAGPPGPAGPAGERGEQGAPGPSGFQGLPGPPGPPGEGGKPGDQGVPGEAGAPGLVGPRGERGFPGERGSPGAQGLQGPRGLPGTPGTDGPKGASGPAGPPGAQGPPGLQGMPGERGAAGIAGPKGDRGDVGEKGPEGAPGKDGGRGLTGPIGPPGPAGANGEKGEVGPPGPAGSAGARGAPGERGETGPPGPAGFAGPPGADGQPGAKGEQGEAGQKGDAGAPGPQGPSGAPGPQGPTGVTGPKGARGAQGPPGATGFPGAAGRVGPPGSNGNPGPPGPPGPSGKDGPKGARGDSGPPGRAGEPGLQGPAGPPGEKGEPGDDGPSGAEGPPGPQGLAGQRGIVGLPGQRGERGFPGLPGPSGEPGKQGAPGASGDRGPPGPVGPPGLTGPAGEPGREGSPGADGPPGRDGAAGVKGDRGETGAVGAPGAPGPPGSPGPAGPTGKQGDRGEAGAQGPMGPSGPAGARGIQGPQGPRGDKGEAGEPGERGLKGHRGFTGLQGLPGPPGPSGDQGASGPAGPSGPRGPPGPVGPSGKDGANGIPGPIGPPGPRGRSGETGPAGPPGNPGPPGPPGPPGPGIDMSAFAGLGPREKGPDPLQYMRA
Procedure: (§4) High binding plates (Greiner, 781061) were immobilized with 2.5 μg/ml recombinant human collagen type II (h Col II, Chondrex, CHX-20051), rabbit collagen type II (rbCol II, prepared from rabbit eyes), porcine collagen type II (p Col II, prepared from porcine eyes), human collagen type I, (h Col I, Sigma, C5483-1MG), human collagen type V (h Col V, Abcam, ab7537), human collagen type III (h Col Ill, Abcam, ab7535) and 67B89 (domain of fibronectin, produced in E. coli) respectively over night at 4° C. ELISA-plates were washed 3 times with PBST (PBS+ 0.1% Tween) and blocked with 3% BSA/0.5% Tween/PBS 2 h at RT. After washing with PBST, dilution series of 1.1 μM to 7×10^−4 nM of dimers (CID 211999, CID 212000), dilution series of 100 nM to 7×10^−6 nM of tetramers (CID 212001 and CID 212704) and dilution series of 10 μM to 2 nM of dimer (CID 212705) were incubated on ELISA-plates 1 h at rt. Plates were washed with PBST and incubated with biotinylated anti-StrepTag-ab (Antikörper-online, ABIN1573895) with a dilution of 1:10.000 for 1 h at rt. The binding was visualized with a-rabbit-IgG-HRP (Sigma, A9169) with a dilution of 1:10.000 and as substrate TMB Plus von KEM EN TEC Diagnostic, Kat-Nr. 4395.

[6] = target: T4, porcine collagen type II (p Col II) (Sus scrofa, UniProt A0A287A2Q7); assay: KD-determination by ELISA vs porcine collagen type II; type: binding
T4 construct: porcine collagen type II (p Col II, prepared from porcine eyes); from tissue; host or cells: porcine eyes
Procedure: as §4

[7] = Soluble expression in Escherichia coli BL21(DE3); type: physicochemical; details: expression in E. coli BL21(DE3)
Procedure: Variants with affinity tag were expressed in Escherichia coli BL21(DE3) using a low copy plasmid system under regulation of a T7 promoter. Proteins were produced in soluble form after induction by lactose included in the medium (autoinduction medium). BL21 (DE3) competent cells were transformed with the expression plasmid, spread onto selective agar plates (kanamycin) and incubated overnight at 37° C. Precultures were inoculated from single colony in 3 ml 2×YT medium supplemented with 50 μg/ml kanamycin and cultured for 6 hours at 37° C. at 200 rpm in a conventional orbital shaker in culture tubes. […] Cultures were transferred to an orbital shaker and incubated at 30° C. and 200 rpm. Recombinant protein expression was induced by metabolizing glucose and subsequently allowing lactose to enter the cells. Cells were grown overnight for approx. 17 hours to reach a final OD600 of about 2-4. Before the harvest, the OD600 was measured, samples adjusted to 0.6/OD600 were withdrawn, pelleted and frozen at −20° C. To collect biomass cells were centrifuged at 12000×g for 15 min at 22° C. Pellets were weighed (wet weight). Cells were stored at −20° C. before processing.
as §1

T1 sequence (P02458 182-1241): as above

Affinity [SPR] vs hCol2 ([1]; dimers or tetramers, Langmuir 1:1 model): 784 nM
Kd ([1]; multi-cycle Biacore measurement, FIG. 4B, read-out: KD for Type II collagen, equilibrium fit of amplitudes): 780 nM
Binding to Type I collagen (SPR) [2]: no binding
Binding to Type III collagen (SPR) [3]: no binding
Binding to Type V collagen (SPR) [4]: no binding
binding affinity (KD) to human type II collagen (ELISA) [5]: 700 nM
specific binding vs porcine type II collagen (ELISA) [6]: 0.7 µM
B1: CID 211519: homodimer of SEQ ID NO: 11 (protein)
chain: IAAKFDEAQQAAFYEILHLPNLTEQQRNYFIQWLRDDPSVSPTVLGTAQQLNDSQAPKIAAKFDEAQQAAFYEILHLPNLTEQQRNYFIQWLRDDPSVSPTVLGTAQQLNDSQAPK
modifications: Col2 binding protein (dimer) 211519
Binding to type II collagen via SPR ([1]; FIG. 3, FIG. 4A): binding to Type II collagen with transient binding signal
Solubility Soluble expression [7]: 95%
